How the values were obtained:
[1] = target: RsPIPS-Δ6N (chimeric construct: Af2299 extramembrane domain fused to the N-terminus of PIP synthase (Archaeoglobus fulgidus | Renibacterium salmoninarum)); assay: crystal structure; RsPIPS-Δ6N, apo, lipidic cubic phase (monoolein), 22 °C, 20% PEG 400, 0.1 M MES pH 6.7, 0.2 M lithium sulfate; space group P 21 21 2, one protomer in the asymmetric unit; 2.5 Å
[2] = target: RsPIPS-FL (chimeric construct: Af2299 extramembrane domain fused to the complete RsPIPS sequence abs (Archaeoglobus fulgidus | Renibacterium salmoninarum)); assay: crystal structure; RsPIPS-FL with CDP-DAG, lipidic cubic phase (2% CDP-dioleoylglycerol/98% monoolein), 22 °C, 30% PEG 300, 0.1 M MES pH 6.0, 0.1 M NaCl, 0.1 M MgCl2; space group P 21, two dimers in the asymmetric unit; 3.6 Å

Substance	stoichiometry N [1]	stoichiometry N [2]
RsPIPS-Δ6N (chimeric construct: Af2299 extramembrane domain fused to the N-terminus of PIP synthase (enzyme)	2	
RsPIPS-FL (chimeric construct: Af2299 extramembrane domain fused to the complete RsPIPS sequence abs (enzyme)		2

From paper PMC4634129
